Laboratory results: patent US20090291088A1, “THERAPEUTIC COMBINATIONS OF ANTI-IGF-1R ANTIBODIES AND OTHER COMPOUNDS” (Biogen Idec MA Inc., priority 2008, published 2009)

How the values were obtained:
IGF-1R = target: T1, IGF-1R (Homo sapiens, UniProt P08069); assay: Ligand blocking assay (RIA): 125I-IGF-1 / 125I-IGF-2 binding to immobilized IGF-1R; details: murine monoclonal antibodies
T1 construct: human IGF-1R(1-903)-Fc (denoted hIGF-1R-Fc, generated by Biogen Idec)
Source text: Ligand blocking assay (RIA). […] Insulin (Arg-Insulin, Cat #01-207) was purchased from Upstate Cell Signaling Solutions (Lake Placid, N.Y. (now part of Millipore, Concord, Mass. (USA)). ^125I-rhIGF-1 (Cat # IM172), ^125I-rhIGF-2 (Cat# IM238) and ^125I-rhInsulin (Cat# IM166) were purchased from Amersham Biosciences (Piscataway, N.J.). AffiPure goat anti-human IgG, Fcγ fragment specific antibodies (Cat #109-005-098, Jackson ImmunoResearch, West Grove, Pa.) was used for IGF-1R-Fc capture. As detection antibody, goat anti-mouse IgG HRP (Cat #1030-05, Southern Biotech Birmingham, Ala.) was used.
Human insulin receptor α-subunit specific antibodies, Clone 83-14, (Cat #AHR0221, Biosource International, Inc., Camarillo, Calif.) and the 47-9 (Cat #E55502M, Biodesign International, Saco, M E) were used as positive controls blocking of insulin-insulin receptor binding experiments. Recombinant IGF-1R-Fc fusion protein was produced at Biogen Idec (Cambridge, Mass.).
As isotype matched mouse negative control antibodies, 2B8 (murine α-CD20.1gG,) and 2B8 mkm.G2a (murine α-CD20 MAb, IgG2a, Biogen Idec, Lot #NB3304-87, San Diego, Calif.) were used. The negative control for Fabs was R001-1B provided by Christilyn Graff (Biogen Idec, Cambridge, Mass.). PBS used in buffers was from BioWhittaker (Cat. # 17-513F, Walkersville, Md.).
Recombinant human IGF-1R (Histidine tagged version) or IGF-1R-Fc was coated onto IMMULON2 HB (high binding) Removawell strips (Dynex Technologies, Inc., cat. #6302) diluted with carbonate coating buffer pH 9.5 to a concentration of 250 ng/well. After overnight incubation at 4° C., the wells were washed three times with washing buffer (0.05% Tween 20/PBS) then blocked with blocking buffer (3% BSA/PBS) for one hour at room temperature. The blocking buffer was removed and the wells washed three more times. Antibody, Fab, or ligand preparations were diluted to desired concentration with dilution buffer (1% BSA/0.05% Tween 20/PBS) and plated at 50 μl per well in duplicate. After 45 minutes at room temperature, 100,000 cpm of either [125I] rhIGF-1 or [125I] rhIGF-2 in 50 μl dilution buffer was added per well. This was incubated at room temperature for one more hour. The wells were washed again three more times and left liquid free after the last wash. The air-dried wells were counted with the Isodata Gamma Counter.
Alternatively, Fabs were evaluated by a modified capture assay, where the IGF-1R-Fc was captured using anti-human IgG immobilized to a plate. Immobilization was carried out by overnight incubation of goat anti-human IgG, Fcγ fragment specific antibody (200 ng/well) in carbonate coating buffer. The wells were washed, blocked and 250 ng of IGF-1R-Fc was added per well.
The ligand blocking ability of the anti-IGF-1R antibody was determined by a solid phase RIA capture method as described in Example 3. […] After 1 hour of incubation at room temperature, the wells were washed and counted for bound radioactivity by a Gamma Counter. An isotype matched negative antibody control, IDEC-151 (human G4), was used. Percent (%) inhibition was calculated as =[1−(Ave.CPM with Ab)/(Ave.CPM with buffer)]×100%.

Calu-6 = assay: IGF driven tumor cell growth, CELL TITER-GLO, Calu-6; format: cell-based, human; details: lung cancer cells
Method: (§1) NCI-H23, Calu-6, Colo-205, Panc-1, BxPC-3 (ATCC) tumor lines were purchased from ATCC. Cell lines were grown in complete growth medium containing RPMI-1640 (ATCC), 10% fetal bovine serum (Irvine Scientific Inc.) and 50 μg/ml of Gentamycin (Gibco, Invitrogen). Trypsin-EDTA solution (Sigma) was used for removal of adherent cells from culture vessels. Phosphate buffered saline, pH 7.2, was from MediaTech Inc The 96-well clear bottom plates for luminescent assay was purchased from Wallac Inc.
(§2) Cells grown to 80% monolayers were, trypsinized, washed, resuspended and plated into 96-well plates in 200 μl of 2% growth medium at 8×10^3 cells/well for NCI-H23 and Colo-205 cells; and 5×10^3 cells/well for Calu-6, Panc-1 and BxPC-3 cells. After 24 hours, the culture medium was replaced with 100 μl of serum free medium (SFM), and 50 μl of serially diluted antibodies at 4× concentration was added. […] All treatments were done in triplicates. Cell growth was measured using the CELL TITER-GLO™ Luminescent Cell Viability Assay (Promega, Madison, Wis.). The 1:1 mixture of reagent and SFM was added at 200 μl/well. Luminescence was detected on Wallac (Boston, Mass.) plate reader.
(§3) The ability of the selected murine antibodies to inhibit IGF/IGF-1R dependent in vitro growth of several human tumor lines (Lung, H-23, Calu-6; Pancreas, BxPc-3, Panc-1, MiaPaCa and Colon Colo205) was measured by a proliferation assay described in Example 13.

MCF-7 = assay: Ki67 inhibition in MCF-7 cells; format: cell-based, human; details: breast cancer cell
NCI-H23 = assay: IGF driven tumor cell growth, CELL TITER-GLO, H-23; format: cell-based, human; details: for inhibition of IGF-1 and IGF-2 driven cell proliferation in H-23: NCI-H23 lung tumor cell line; for Proliferation of Tumor Cells H-23: lung cancer cells
Method: as §1, §2, §3
A commercially available anti-IGF-1R antibody (IR3) was used as a positive control. The mouse IgG (anti-IDectin, IgG1) and human gamma 4 version of IDEC-152 antibody of irrelevant specificity were used as isotype matched controls for the experiments. […]

Panc-1 = assay: IGF driven tumor cell growth, CELL TITER-GLO, Panc-1; format: cell-based, human; details: pancreatic cancer cell
Method: as §1, §2, §3

IGF-1R phosphorylation = target: T2, IGF-1R phosphorylation (Homo sapiens, UniProt P08069); assay: Inhibition of IGF-1 and IGF-2 mediated IGF-1R phosphorylation in MCF-7 cells (ELISA); format: cell-based; details: murine monoclonal antibodies
T2 construct: wild type IGF-1R expressed on MCF-7 tumor cells; endogenous in cells; host or cells: MCF-7
Method: Cell lines: IGF1R expressing human breast carcinoma cell line MCF-7 (NCI) were maintained at 37° C. and 5% CO2 in MEM eagle (ATCC) containing 10% FBS, 1× non-essential amino acids, 2 mM L-glutamine, 1 mM sodium pyruvate and 1000 U/ml penicillin and streptomycin. Cells were sub-cultured twice weekly for maintenance and assay, and used with a maximum of 12 passages.
MCF-7 cells were plated in 2 ml growth media at 2×10^5 to 4.0×10^5 cells/well in Ploy-D-Lysine coated 12 well plates (BD Biosciences, #35-6470) and cultured at 37° C., 5% CO2. At 48 hours, media removed and cells serum starved overnight at 37° C., 5% CO2 Serum free media was removed and control or test antibodies at indicated concentration were added in 350 ul of fresh serum free media and incubated for 1 hour at room temperature, or alternately at 37° C. Fabs were tested at 200 nM, 20 nM and 2 nM concentration and the mAbs were tested at 67, 6.7 and 0.67 nM. The commercial anti-IGF-1R control antibody used was αIR3 (EMD biosciences, Oncogene Research products, #D27249). […] Ligand was incubated at […] for 37° C. antibody experiments. Cells were lysed in 1× cell lysis buffer (Cell Signal Technologies, #9803) with 1 mM PMSF for 1 hour at room temperature.
Cell lysates were added to ELISA plates pre-coated with IGF-1Rp antibody (Clone 1-2, Biosource International, #AHR0361) and incubated for 2 hours. Following which plates were washed and the plate bound phosphorylated receptor was detected with the biotin labeled anti-phosphotyrosine antibody 4G10 (Catalog #16-103, Upstate Cell Signaling Solutions (Lake Placid, N.Y. (now part of Millipore, Concord, Mass. (USA)) and streptavidin-HRP (BD Pharmingen, #554066). Assay is developed by addition of TMB substrate (Kierkegaard & Perry, #50-76-00) and color stopped by addition of […] (LabChem, Cat#LC25830-1). Optical density is measured at 450 nm using a Molecular Devices plate reader and percent inhibition over the ligand control is calculated for each antibody-ligand sample.
The effect of human anti-IGF-1R antibodies on IGF-1R signaling was evaluated using MCF-7 cells (human breast adenocarcinoma cells).

Colo-205 = assay: IGF driven tumor cell growth, CELL TITER-GLO, Colo-205; format: cell-based, human; details: colon cancer cell
Method: as §1, §2, §3

B1: P2A7.3E11: murine anti-human IGF-1R monoclonal antibody from hybridoma; VH SEQ ID NO:38, VL SEQ ID NO:98 (antibody, V domains shown)
VH: QVQLQQSGPELVKPGASVKMSCKASGNTFTDYVINWVKQRTGQGLEWIGEIYPGNENTYYNEKFKGKATLTADKSSNTAYMQLSSLTSEDSAVYFCARGIYYYGSRTRTMDYWGQGTSVTVSS
VL: EVVLTQSPTAMAASPGEKITITCSASSTLSSNYLHWYQQKPGFSPKLLIYRTSNLASGVPGRFSGSGSGTSYSLTIGTMEAEDVATYYCQQGSSIPLTFGAGTKLELK
modifications: Antibody variable heavy chain sequence; Antibody variable light chain sequence
In the case of B1, the “IGF Blocking IGF-1” value (IGF-1R) is reported as “+++ (>40%@0.1 μg/ml)”, the “Proliferation of Tumor Cells Calu-6” value (Calu-6) is reported as “+++ (>30%@0.1 μg/ml)” and the “Proliferation of Tumor Cells MCF-7* (Ki67 Inhibit.)” value (“Proliferation … (Ki67 Inhibit.)” for short) (MCF-7) is reported as “++ (>50%@1 μg/ml)”. The “inhibition of IGF-1 and IGF-2 driven cell proliferation in H-23” value (NCI-H23) was “showed inhibition”, the “Proliferation of Tumor Cells H-23” value (NCI-H23) was “++++ (>30%@0.01 μg/ml)” and the “Proliferation of Tumor Cells Panc-1” value (Panc-1) was “++++ (>30%@0.01 μg/ml)”. The “Inhibition of IGF-1R.pTyr IGF-1” value (IGF-1R phosphorylation) was “+++ (>30%@0.1 μg/ml)”, the “Inhibition of IGF-1R.pTyr IGF-2” value (IGF-1R phosphorylation) was “++ (>30%@1 μg/ml)” and the “Proliferation of Tumor Cells Colo-205” value (Colo-205) was “+++ (>30%@0.1 μg/ml)”.

B2: P1A2.2B11: murine anti-human IGF-1R monoclonal antibody from hybridoma; VH SEQ ID NO:48, VL SEQ ID NO:108 (antibody, V domains shown)
VH: QIQLVQSGPELKKPGETVKISCKASGYTFTNHGMNWVKQAPGKGLKWMGWNTSTGEPTYADDFKGRFAFSLETSASTAFLQINNLKNEDTASYFCASPLYYMYGRYIDVWGAGTAVTVSS
VL: DIQMTQTTSSLSASLGDRVTISCRASQDISNYLNWYQQKPDGTIKLLIYYTSRLHSGVPSRFSGSGSGTDYSLTISNLEQEDFATYFCQQGKTLPWTFGGGTKLEIK
modifications: Antibody variable heavy chain sequence; Antibody variable light chain sequence
With B2 the “IGF Blocking IGF-1” value (IGF-1R) was “+++ (>40%@0.1 μg/ml)”, the “Proliferation of Tumor Cells Calu-6” value (Calu-6) was “++ (>30%@1 μg/ml)” and the “Proliferation … (Ki67 Inhibit.)” value (MCF-7) was “++ (>50%@1 μg/ml)”. The “inhibition of IGF-1 and IGF-2 driven cell proliferation in H-23” value (NCI-H23) was “showed inhibition”, the “Proliferation of Tumor Cells H-23” value (NCI-H23) was “+++ (>30%@0.1 μg/ml)” and the “Proliferation of Tumor Cells Panc-1” value (Panc-1) was “+++ (>30%@0.1 μg/ml)”. The “Inhibition of IGF-1R.pTyr IGF-1” value (IGF-1R phosphorylation) was “+++ (>30%@0.1 μg/ml)”, the “Inhibition of IGF-1R.pTyr IGF-2” value (IGF-1R phosphorylation) was “+++ (>30%@0.1 μg/ml)” and the “Proliferation of Tumor Cells Colo-205” value (Colo-205) was “+++ (>30%@0.1 μg/ml)”.

B3: P1E2.3B12: murine anti-human IGF-1R monoclonal antibody from hybridoma; VH SEQ ID NO:63, VL SEQ ID NO:118 (antibody, V domains shown)
VH: QVQLQQPGAELVKPGASVKLSCKASGYTFTSYWMHWVKQRPGQGLEWIGEINPTYGRSNYNEKFKSKATLTVDKSSSTAYMQLSSLTSEDSAVYYCARLVRLRYFDVWGAGTTVTVSS
VL: DIVMTQAAFSNPVTLGTSASISCRSSKSLLHSNGITYLYWYLQKPGQSPQLLIYQMSNLASGVPDRFSSSGSGTDFTLRISRVEAEDVGVYYCAQNLELPYTFGGGTKLEIK
modifications: Antibody variable heavy chain sequence; Antibody variable light chain sequence
In the case of B3, the “IGF Blocking IGF-1” value (IGF-1R) is reported as “+++ (>40%@0.1 μg/ml)”, the “Proliferation of Tumor Cells Calu-6” value (Calu-6) is reported as “++ (>30%@1 μg/ml)” and the “Proliferation … (Ki67 Inhibit.)” value (MCF-7) is reported as “++ (>50%@1 μg/ml)”. For the same molecule, the “Proliferation of Tumor Cells H-23” value (NCI-H23) was “++++ (>30%@0.01 μg/ml)”, the “Proliferation of Tumor Cells Panc-1” value (Panc-1) was “++ (>30%@1 μg/ml)” and the “Inhibition of IGF-1R.pTyr IGF-1” value (IGF-1R phosphorylation) was “+++ (>30%@0.1 μg/ml)”. The “Inhibition of IGF-1R.pTyr IGF-2” value (IGF-1R phosphorylation) was “+++ (>30%@0.1 μg/ml)” and the “Proliferation of Tumor Cells Colo-205” value (Colo-205) was “++ (>30%@1 μg/ml)”.
